PMC7048182

Target: V5-tagged LvpIgR expressed in HEK293T cells (Litopenaeus vannamei)

“GST-tagged VP24 of WSSV (natural protein)” gave a WSSV infection rate of HEK293T cells transfected with LvpIgR, FITC-labelled WSSV preincubated with rPEN2; control preincubated with rTrx: 49.08% of 33.9%.
